In experiment [1] the target is DDR1 endogenously expressed on human cancer cell lines (T47D, HCT-116, A431) (human) (UniProt Q08345). As to the kind of experiment: cell-based or functional assay.
For experiment [2] the target is unchanged. As to the kind of experiment: flow cytometry, T47D cells. Background: In flow cytometry, cells or beads pass a laser one at a time.
Experiment [3] has the same target. The experiment can be described thus: flow cytometry, HCT116 cells.
In experiment [4] the target is human DDR1 (isoform B) stably expressed on HEK293 cells (human) (UniProt Q08345). As to the kind of experiment: flow cytometry, HEK293/hDDR1.
human DDR1 (isoform B) stably expressed on HEK293 cells (human), sequence (Q08345 19-913): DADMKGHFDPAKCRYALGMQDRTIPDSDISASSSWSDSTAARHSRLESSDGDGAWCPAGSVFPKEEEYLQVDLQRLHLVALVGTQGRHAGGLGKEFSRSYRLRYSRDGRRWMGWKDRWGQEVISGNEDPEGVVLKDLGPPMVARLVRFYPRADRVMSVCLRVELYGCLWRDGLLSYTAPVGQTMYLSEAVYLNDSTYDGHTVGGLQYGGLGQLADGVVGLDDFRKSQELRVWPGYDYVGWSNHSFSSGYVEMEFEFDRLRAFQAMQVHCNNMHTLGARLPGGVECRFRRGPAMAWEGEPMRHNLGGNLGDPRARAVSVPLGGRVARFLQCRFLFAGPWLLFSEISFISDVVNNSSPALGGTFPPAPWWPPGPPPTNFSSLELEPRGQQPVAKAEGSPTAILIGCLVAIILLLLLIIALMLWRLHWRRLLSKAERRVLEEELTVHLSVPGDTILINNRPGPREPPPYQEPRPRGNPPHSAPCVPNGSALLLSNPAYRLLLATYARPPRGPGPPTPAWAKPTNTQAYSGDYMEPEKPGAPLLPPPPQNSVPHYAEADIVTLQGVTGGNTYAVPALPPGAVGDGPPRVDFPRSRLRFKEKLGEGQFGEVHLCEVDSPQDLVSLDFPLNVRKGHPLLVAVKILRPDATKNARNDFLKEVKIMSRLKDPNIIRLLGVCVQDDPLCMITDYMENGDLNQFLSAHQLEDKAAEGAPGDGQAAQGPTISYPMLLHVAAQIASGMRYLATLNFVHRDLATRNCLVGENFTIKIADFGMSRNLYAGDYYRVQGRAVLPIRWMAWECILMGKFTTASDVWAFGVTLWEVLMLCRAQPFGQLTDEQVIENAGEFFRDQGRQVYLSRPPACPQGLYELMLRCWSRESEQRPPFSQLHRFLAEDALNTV
Experiment [5] concerns the target T1, human DDR2 stably expressed on HEK293 cells (human) (UniProt Q16832).
T1 sequence (looked up): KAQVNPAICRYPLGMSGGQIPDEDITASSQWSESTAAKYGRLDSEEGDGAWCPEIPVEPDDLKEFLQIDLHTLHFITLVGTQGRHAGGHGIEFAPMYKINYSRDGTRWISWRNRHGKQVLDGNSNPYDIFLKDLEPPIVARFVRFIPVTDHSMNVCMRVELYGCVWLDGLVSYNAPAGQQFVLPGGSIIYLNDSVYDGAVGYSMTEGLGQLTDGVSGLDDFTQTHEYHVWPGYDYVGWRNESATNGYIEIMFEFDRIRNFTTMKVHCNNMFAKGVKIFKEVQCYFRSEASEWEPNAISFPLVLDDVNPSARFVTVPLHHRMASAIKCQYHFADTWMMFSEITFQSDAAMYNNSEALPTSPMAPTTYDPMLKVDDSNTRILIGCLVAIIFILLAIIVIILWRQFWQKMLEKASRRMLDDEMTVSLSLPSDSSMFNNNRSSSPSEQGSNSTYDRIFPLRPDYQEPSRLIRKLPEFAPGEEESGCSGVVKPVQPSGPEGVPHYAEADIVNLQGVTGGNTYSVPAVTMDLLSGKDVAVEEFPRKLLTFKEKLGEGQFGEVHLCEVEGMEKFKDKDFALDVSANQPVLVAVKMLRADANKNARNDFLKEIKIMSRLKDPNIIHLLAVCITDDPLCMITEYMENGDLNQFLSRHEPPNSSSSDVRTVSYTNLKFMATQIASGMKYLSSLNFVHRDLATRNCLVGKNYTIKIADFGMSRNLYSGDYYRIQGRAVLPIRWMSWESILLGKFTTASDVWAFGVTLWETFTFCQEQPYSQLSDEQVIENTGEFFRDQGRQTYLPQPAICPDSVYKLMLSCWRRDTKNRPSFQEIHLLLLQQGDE
The experiment can be described thus: flow cytometry, HEK293/hDDR2.

For experiment [6], the target named is DDR1 with a ProLink Tag (PK) in engineered U20S cells (DiscoveRx), Q08345. The experiment can be described thus: cell-based or functional assay.
In experiment [7] the target is T2, DDR1ECD-Fc (R&D Systems, Catalog #2396-DR) (human, UniProt Q08345 21-416).
T2 construct: range 21-416; construct as described for the bought immunogen; also called human ECD-DDR1-Fc; Fc-ECD-DR1; not shown: human IgG1, Pro100-Lys330
The experiment can be described thus: ELISA, coated antigen, apparent KD. In outline:
(§1)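 Plates coated overnight at 4° C with 2 μg/mL purified tagged DDR1 ECD protein, BSA-blocked; serially diluted murine anti-DDR1 mAbs bound 1 hr at room temperature, detected with anti-mouse IgG-HRP and TMB (OD 450). Apparent KD taken as C-parameter of 4-parameter logistic fit of OD versus antibody concentration.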
(In general: An ELISA detects its analyte on a solid surface through an enzyme-linked reagent.)

Experiment [8] concerns the target T3, human ECD-DDR1-His protein (human, UniProt Q08345 21-416).
T3 construct: also called huDDR1-ECD-His; DDR1ECD-6Xhis; not shown: His tag
As to the kind of experiment: ELISA, coated antigen, apparent KD. A digest of the protocol:
as §1

For experiment [9], the target named is T4, mouse ECD-DDR1-Fc (mouse; human, UniProt Q03146 22-414).
T4 construct: also called mouse DDR1-ECD; wild-type mouse DDR1-ECD; not shown: human IgG1 Fc of the vector pFuse-hIgG1-Fc1 (Invivogen)
T4 sequence: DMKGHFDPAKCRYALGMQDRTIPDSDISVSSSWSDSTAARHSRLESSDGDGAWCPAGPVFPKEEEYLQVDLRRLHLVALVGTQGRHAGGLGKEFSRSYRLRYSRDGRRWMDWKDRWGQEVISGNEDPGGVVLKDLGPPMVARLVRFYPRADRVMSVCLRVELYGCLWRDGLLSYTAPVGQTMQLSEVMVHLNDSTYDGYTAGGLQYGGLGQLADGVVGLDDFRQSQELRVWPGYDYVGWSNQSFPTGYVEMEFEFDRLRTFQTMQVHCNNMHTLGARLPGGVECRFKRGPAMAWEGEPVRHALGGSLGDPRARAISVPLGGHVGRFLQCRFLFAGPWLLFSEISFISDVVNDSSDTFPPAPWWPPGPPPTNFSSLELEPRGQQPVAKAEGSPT
As to the kind of experiment: ELISA, coated antigen, apparent KD. In outline:
as §1

Experiment [10] deals with T4, mouse ECD-DDR1-Fc. As to the kind of experiment: ELISA, coated antigen. The method, then:
(§2) In this study, ELISA was used to determine the affinity of murine anti-DDR1 monoclonal antibodies to the extracellular domain (ECD) of either human or murine DDR1. A 96-well MaxiSorb ELISA plates (Nunc) were coated with 2 μg/mL of one of three purified recombinant tagged proteins: human ECD-DDR1-His protein, human ECD-DDR1-Fc, or mouse ECD-DDR1-Fc overnight at 4° C. The next day, the plates were blocked with 5% bovine serum albumin (BSA, Jackson Immunoresearch) prior to the addition of serially diluted anti-DDR1 monoclonal antibodies. Antibodies were incubated for 1 hr at room temperature. The binding of antibody to the antigen was detected by incubating samples with anti-mouse IgG-HRP (horse radish peroxidase) secondary detection antibody (Jackson Immunoresearch) for 1 hr. After a washing step, 3,3′,5,5″-tetramethylbenzidine (TMB) reagent was added for HRP to produce a colorimetric signal. The reaction was stopped by addition of 1M hydrochloric acid after 2 minutes and measured for absorbance (optical density, OD) at 450λ on a Molecular Devices plate reader. The OD values were plotted against antibody concentration and fitted using a using 4-parameter logistic equation in SoftMax software (Molecular Devices). The apparent affinity constant (KD) was taken from the C-parameter of the equation (y=(A−D)/(1+(x/C)̂B)+D). The apparent affinity constants were summarized (in some cases shown as average values) in Table 10 below. Lower value indicates higher binding affinity of the antibody to the antigen.

Experiment [11] has as its target T5, human DDR2 stably expressed on HEK293 cells (human, UniProt Q16832 22-855).
T5 construct: whole, on cells; also called hDDR2
T5 sequence (looked up): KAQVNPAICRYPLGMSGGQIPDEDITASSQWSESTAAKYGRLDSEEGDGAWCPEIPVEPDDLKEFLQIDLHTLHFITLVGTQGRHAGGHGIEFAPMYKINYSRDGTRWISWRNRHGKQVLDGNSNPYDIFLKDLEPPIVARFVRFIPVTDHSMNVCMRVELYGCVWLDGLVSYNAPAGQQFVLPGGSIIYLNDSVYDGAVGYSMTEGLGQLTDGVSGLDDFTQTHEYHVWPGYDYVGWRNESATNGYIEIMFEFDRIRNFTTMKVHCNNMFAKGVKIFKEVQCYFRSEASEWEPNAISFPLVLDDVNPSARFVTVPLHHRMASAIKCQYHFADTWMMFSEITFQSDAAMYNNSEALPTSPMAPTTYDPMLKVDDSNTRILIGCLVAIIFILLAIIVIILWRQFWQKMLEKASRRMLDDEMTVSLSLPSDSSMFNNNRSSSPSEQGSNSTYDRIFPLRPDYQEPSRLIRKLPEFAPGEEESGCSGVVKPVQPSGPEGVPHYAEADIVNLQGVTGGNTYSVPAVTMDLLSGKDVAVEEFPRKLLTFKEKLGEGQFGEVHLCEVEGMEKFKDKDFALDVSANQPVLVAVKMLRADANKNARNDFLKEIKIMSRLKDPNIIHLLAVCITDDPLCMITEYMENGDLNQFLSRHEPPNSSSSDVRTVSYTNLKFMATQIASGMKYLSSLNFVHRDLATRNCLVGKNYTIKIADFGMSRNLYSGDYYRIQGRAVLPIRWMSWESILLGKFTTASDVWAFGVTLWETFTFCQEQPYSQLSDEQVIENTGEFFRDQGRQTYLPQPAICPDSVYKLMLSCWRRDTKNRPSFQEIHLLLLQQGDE
The experiment can be described thus: flow cytometry, HEK293/hDDR2. In outline: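 Anti-DDR1 mAbs or isotype controls (2 μg per 1×10⁶ cells) were incubated with the stably transfected HEK293 cells at 4 °C for 1 hr, then detected with anti-IgG-PE at 4 °C for 1 hr. Binding was read as flow-cytometry MFI, with vector-only HEK293 background subtracted.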

In experiment [12] the target is T2, DDR1ECD-Fc (R&D Systems, Catalog …). The experiment can be described thus: ELISA, coated antigen, apparent KD; human ECD-DDR1-Fc coated on the plate, not the His-tagged or mouse antigen. The procedure:
as §2, with “The apparent affinity constants were summarized (in some cases shown as average values) in Table 10 below. Lower value indicates higher binding affinity of the antibody to the antigen.” left out

B1: AB2080 (antibody, V domains shown)
VH: EVQLQQSGPELVKPGASMKISCKASGYSFTGYTMTWVKQSHGKNLEWIGLINPYIGVTSYNQKFKGKATLTVDKSSSTAYMELLSLTSEDSAVYYCARLYDRGGRYAMDYWGQGTSVTVSS
VL: QIVLTQSPAIMSASPGEKVPMTCSASSSVSFMHWYQQKSGTSPKRWIYDTSKLASGVPARFSGSGSGTSYSLTISNMEAEDAATYYCQQWNSDPWTFGGGSKL
notes: mouse hybridoma mAb
Take B1: the EC50, DDR1 phospho-specific ELISA (T47D) in experiment [1] was determined as 4.67 nM. This molecule showed an EC50, cluster formation assay (A431 cells) in experiment [1] of 1.24 nM. Further, the Maximal inhibition, DDR1 phospho-specific ELISA (T47D) in experiment [1] was 100%. Further, the MFI amounted to 1220 MFI in experiment [2], 572 MFI in [3], 3140 MFI in experiment [4] and 313 MFI in experiment [5]. The molecule also gave a Mean EC50, DDR1 Tyr513 phosphorylation assay (U20S) in experiment [6] of 2.2 nM. Besides, the figures for the Kd in [7], in experiment [8] and in experiment [9] were 0.669 nM, 0.418 nM and 2.89 nM, respectively.

B2: AB2002 (antibody, V domains shown)
VH: EVNLVESGGGLVKPGGSLKLSCAASGFTFSTYAMSWVRQTPEKRLEWVASISSGGITHYPDSMKGRFTVSRDNARNILYLQMRSLRSEDTAKYYCARGRSSMIPDYWGQGTSVSVSS
VL: DIVMTQSHKFMSTSVGDRVSITCKASQDVGTAVAWYQQKPGQSPKLLIYWASTRHTGVPDRFTGSGSGTDFTLTISNVQSEDLADYFCQQYSTYPLTFGAGTKLELKR
notes: mouse hybridoma mAb
In turn, B2 showed an EC50, DDR1 phospho-specific ELISA (T47D) in [1] of 1.07 nM. Also, the EC50, cluster formation assay (A431 cells) in experiment [1] came to 9.72 nM. This molecule also returned a Maximal inhibition, DDR1 phospho-specific ELISA (T47D) in [1] of 100%. For the same molecule, the NPI of cluster formation at 66 nM (A431 cells) in [1] was 102%. The MFI stood at 3590 MFI in experiment [2], 1010 MFI in [3], 7240 MFI in experiment [4] and 170 MFI in experiment [11]. Besides, in experiment [10], the binding result is listed as “no binding”. In experiment [6], this molecule registered a Mean EC50, DDR1 Tyr513 phosphorylation assay (U20S) of 4.5 nM. The Kd in experiment [8] stood at 0.233 nM; in experiment [12], 0.268 nM.

These data come from patent US20140086913A1 (Gilead, published 2014).
